Consider one molecule from patent publication US9617326B2, “RTRAIL mutant and monomethyl auristatin E conjugate thereof” (Zhejiang University, priority 2012, dated 2017).

For one series, the system named is Hela cells. The series can be described thus: In vitro anti-tumor activity (CCK-8 killing) on Hela cells. Conditions: Hela (TRAIL insensitive type), 32-1000 ng/mL, both low and high concentrations, 96 hours, FIG. 6. Format: cell-based. The text has this:
(§1) 4 types of cells were selected to measure in vitro anti-tumor activity of the rTRAIL mutant and the MMAE conjugate: TRAIL sensitive type (NCI-H460), TRAIL insensitive type (Hela), TRAIL resistant type (MCF-7) and normal cells (HEK293). All of these 4 types of cells had TRAIL death receptor on their surfaces.
(§2) Hereinafter, TRAIL sensitive type NCI-H460 cell was taken as an example to give detailed description of the test procedure, including the following steps:
(§3) (1) Digesting the NCI-H460 cells into individual cells, followed by diluting to 1×10^4 cells/mL, spreading the cells on 96-well plate (100 μL for each well), and culturing the cells for 24 hours under normal condition.
(§4) (2) Diluting N109C, N109C-vcMMAE and S96C-vcMMAE with culture medium respectively, and adding them into the cell plate with final concentrations of 32, 63, 125, 250, 500, 1000 ng/mL for serving as the test groups, while using standard TRAIL (114-281) as the positive control group, using the buffer (used for dissolving the test sample, diluted with the culture medium in a same manner) as the negative control group, and using the culture medium (without adding any solution) as the blank control group. All the control groups and test groups were tested in triplicate. […]

Another series has as its system MCF-7 cells. Briefly: In vitro anti-tumor activity (CCK-8 killing) on MCF-7 cells. Format: cell-based. As to conditions: MCF-7 (TRAIL resistant type), 32-1000 ng/mL, both low and high concentrations, 96 hours, FIG. 6.
Source text: as §1, §2, §3, §4

Series [1] relates to NCI-H460 tumor-bearing mice. Conditions: athymic mice with NCI-H460 tumor; for distribution of fluorescence in mice: about 50 μg Cy5-labeled conjugate via tail vein. The method, then:
N109C-vcMMAE was taken as an example, and the conjugate was tracked in real-time in mice by Fluorescent labeling method to observe tumor targeting ability of the conjugate.
Athymic mice weighing 20 g were selected and 10^7 NCI-H460 cells were injected subcutaneously in the armpit of one side of the forelegs.
Cy5, as a Near-IR-activated dye, was used as a fluorescent label, so as to facilitate the fluorescence to pass through animal skin and achieve the goal of real time vital observation. In terms of concrete method of Cy5 labeling, please refer to the instruction offered by the manufacturer (Lumiprobe).
200 μL sample containing about 50 μg Cy5-labeled conjugate was injected into the tumor-bearing mice via tail vein, while equal amount of normal saline was injected into the blank control group.
Small living animal imager (NightOWLN320) was used to observe distribution of fluorescence in mice every 24 hours. […] The mice were killed after 4th day, and heart, liver, spleen, lung, kidney and tumor tissues were isolated. […] The white arrow indicates tumor site.

In another series the test system is NCI-H460 cells. The series can be described thus: Cell endocytosis of the conjugate by tumor cells (laser confocal). Format: cell-based. Conditions: 1 μg/mL. The method, then:
NCI-H460 cells were taken as an example to observe behaviors of rTRAIL mutant-vcMMAE conjugate in tumor cells by laser confocal technology, including the following steps:
a) A coverslip was immersed with 1M HCl and 70% ethanol, subjected to ultrasonic treatment for 30 min, washed for 5-6 times with double distilled water and sterilized for later use;
b) Well-sterilized coverslip was placed in 24-well plate, and cells were plated at 10^4 cells/well and cultured overnight at 37° C.;
c) Administration: N109C-vcMMAE and S96C-vcMMAE were diluted respectively to a final concentration of 1 μg/mL, and the cells were treated according to step d) at different time points (1st, 4th, 8th and 12th hour), while drug-free culture medium was used for the blank control group; d) The coverslip was washed with cold PBS for 3 times and then fixed with 4% paraformaldehyde for 10 min at room temperature; e) PBS was used to wash the coverslip for another 3 times; f) 0.1% Triton X-100 was added to permeabilize for 10 min at room temperature; g) 2% BSA was added to block for 30 min after 3 times washing with PBS; h) Primary antibody incubation: rabbit anti-human rTRAIL polyclonal antibody was diluted with 1% BSA/PBS to 1 μg/mL and incubated for 45 min at room temperature; i) Secondary antibody incubation: FITC-labeled goat anti-rabbit secondary antibody was diluted 500-fold with 1% BSA/PBS and incubated for 45 min at room temperature; j) Staining cell nucleus with DAPI: after PBS washing (3 times), DAPI diluted 1000-fold with PBS was added dropwise on each coverslip (it was appropriate to just cover the cells), and the coverslip was incubated for about 2 min at 25° C.; k) Mounting: after PBS washing, one drop of Anti-fade Fluorescence Mounting Medium was added on the coverslip, then the coverslip was placed upside down on a glass slide and then sealed with nail polish around the coverslip; l) Cofocal detection: the detection result was shown in FIG. 8.

Where two headings read alike, the source gives them in different places.

B1: N109C-vcMMAE: rTRAIL N109C mutant trimer coupled via maleimide-modified valine-citrulline linker to 1-3 MMAE molecules (conjugate)
chain: TSEETISTVQEKQQCISPLVRERGPQRVAAHITGTRGRSNTLSSPNSKNEKALGRKINSWESSRSGHSFLSNLHLRNGELVIHEKGFYYIYSQTYFRFQEEIKENTKNDKQMVQYIYKYTSYPDPILLMKSARNSCWSKDAEYGLYSIYQGGIFELKENDRIFVSVTNEHLIDMDHEASFFGAFLVG
modifications: non-natural residues
notes: rTRAIL N109C mutant trimer coupled via maleimide-modified valine-citrulline linker to 1-3 MMAE molecules
Turning to B1, the killing ability entry in the series on Hela cells and in the series with MCF-7 cells was “stronger killing ability than S96C-vcMMAE” in each case. For the same molecule, the “distribution of fluorescence in mice” value in series [1] (3rd day) is listed as “most of the fluorescence had gathered on tumor site”; in series [1] (4th day), “only the tumor site emitted fluorescence”. Besides, the tumor-targeting effect entry in series [1] (in vivo imaging over 4 days and isolated tissues) is given as “excellent tumor-targeting effect”. The “endocytosis by tumor cells (confocal)” value in the series on NCI-H460 cells (1 hour after administration) is “a lot of N109C-vcMMAE had entered the cells”; with NCI-H460 cells (4 hours), “more and more N109C-vcMMAE entered the cells and began to aggregate slowly”; with NCI-H460 cells (8 hours) it was “more aggregating points emerging inside the cells”. In addition, the “endocytosis by tumor cells and apoptosis (confocal)” value in the series on NCI-H460 cells (12 hours) was “aggregating points inside the cells decreased gradually and cell apoptosis began to occur”.
